The record followed here is article PMC4864350, “Fluorogenic Substrates for In Situ Monitoring of Caspase-3 Activity in Live Cells” (PLoS ONE, 2016).

Non-standard residues stand in square brackets, D forms with d. *: point of attachment. MethylRed = CN(C)c1ccc(/N=N/c2ccccc2C(=O)*)cc1; FAM = 5(6)-carboxyfluorescein; peptoid = not defined here; Ahx = NCCCCCC(=O)O

For assay [1], the target named is T1, caspase-3 (Homo sapiens, UniProt P42574).
T1 construct: purchased R&D systems, USA
T1 sequence (P42574 29-175 limits assumed): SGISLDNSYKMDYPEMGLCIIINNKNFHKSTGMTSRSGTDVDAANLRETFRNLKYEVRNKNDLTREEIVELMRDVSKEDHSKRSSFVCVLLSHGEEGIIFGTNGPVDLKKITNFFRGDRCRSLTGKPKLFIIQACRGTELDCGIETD
T1 sequence (P42574 176-277 limits assumed): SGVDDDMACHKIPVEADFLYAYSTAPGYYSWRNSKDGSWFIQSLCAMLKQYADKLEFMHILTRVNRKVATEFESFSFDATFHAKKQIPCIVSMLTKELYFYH
Kind of assay: Kinetic assay of fluorogenic substrates with caspase-3. Particulars: substrate range 0.1–8 μM, enzyme 20 nM (1–9) or 15 nM (10–14), n = 3; for Km: fluorescence λEx/Em 485/528 nm, initial rate 0–5 min, Michaelis-Menten. The class given is biochemical. Here is the method: (§1) The ability of […] (bearing MR as the quencher of choice) to act as s substrate for caspase-3, as well as caspase-7, was investigated by determining the catalytic efficiency (kcat/KM) for each substrate with both enzymes (Table 2).
(§2) Caspase-3 or caspase-7 (R&D systems, USA) was added to 100 μL of caspase assay buffer with substrates 1–14 at concentrations from 0.1 μM to 8 μM in a 96-well plate (n = 3) to give final enzyme concentration of 20 nM (1–9) or 15 nM (10–14). Fluorescence (λEx/Em 485/528 nm) was recorded on a Biotek Synergy HT Multi-Mode Microplate Reader every 2 min. Control samples had the same composition but no enzyme. The rate (μM/min) was calibrated using a 5(6)-carboxyfluorescein conversion factor (0.0055 μM/RFU) and data plotted against time (min). For initial cleavage rate (0–5 min), plots were fitted using linear regression analysis and the Michaelis-Menten data generated using GraphPad Prism 5.

Assay [2] has as its target T2, caspase-7 (Homo sapiens, UniProt P55210).
T2 construct: purchased R&D systems, USA
T2 sequence (P55210 24-198 limits assumed): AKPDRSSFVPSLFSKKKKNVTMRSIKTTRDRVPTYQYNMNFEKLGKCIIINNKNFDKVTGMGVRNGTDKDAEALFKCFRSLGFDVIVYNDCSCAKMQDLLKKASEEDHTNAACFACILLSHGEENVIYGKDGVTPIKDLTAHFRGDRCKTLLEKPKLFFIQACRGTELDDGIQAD
T2 sequence (P55210 207-303 limits assumed): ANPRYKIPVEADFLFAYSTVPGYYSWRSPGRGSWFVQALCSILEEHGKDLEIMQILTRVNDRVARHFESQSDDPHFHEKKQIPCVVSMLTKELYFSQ
As to the kind of experiment: Caspase-7-mediated cleavage at high enzyme concentration analysed by MALDI-TOF MS. Format: biochemical. The note with it: 10–20 μM substrate, 0.4 μM enzyme, 2 h; for cleavage by caspase-7 (MALDI-TOF MS): 37 °C; for cleavage site with caspase-7: MALDI-TOF MS. Here is the method:
(§3) To confirm how specific 11, 12 and 14 were for caspase-3, these substrates were incubated with high enzyme concentrations (10–20 μM substrate, 0.4 μM enzyme) and the caspase-mediated cleavage analysed by MALDI-TOF MS.
(§4) S2 Fig. (A) MALDI-TOF MS spectra of substrate 11 (sequence Asp-Ala-Pro-Asp). (B) After incubation (20 µM) with Caspase-3 for 2 h. (C) After incubation (20 µM) with Caspase-7 for 2 h (detected as the PBS adduct.)
(§5) Caspase-3 or caspase-7 (R&D systems, USA) was added to 100 µL of caspase assay buffer (final enzyme concentration 0.4 µM) with the substrates at 10–20 µM. The samples were incubated in Eppendorf Thermomixer® Comfort shaking at 1200 rpm for 2h at 37 °C. MALDI -TOF mass spectra were recorded as described in Table S1 .
(§6) (1 picture or pasted object on this page, not shown here)

Assay [3] has as its target T2, caspase-7. Kind of assay: Kinetic assay of fluorogenic substrates with caspase-7. The note with it: substrate range 0.1–8 μM; enzyme 20 nM (1–9) or 15 nM (10–14); n = 3. The class given is biochemical. As to the method: as §1, §2
Assay [4] concerns the target T1, caspase-3. Kind of assay: Caspase-3-mediated cleavage at high enzyme concentration analysed by MALDI-TOF MS. Format: biochemical. The note with it: 10–20 μM substrate, 0.4 μM enzyme; for cleavage by caspase-3 (MALDI-TOF MS): 2 h, 37 °C; for parent compound after incubation with caspase-3: after 2h, MALDI-TOF MS. Here is the method:
as §3, §4, §5, §6

Assay [5] has as its target T3, caspase-3 (UniProt P42574).
T3 sequence: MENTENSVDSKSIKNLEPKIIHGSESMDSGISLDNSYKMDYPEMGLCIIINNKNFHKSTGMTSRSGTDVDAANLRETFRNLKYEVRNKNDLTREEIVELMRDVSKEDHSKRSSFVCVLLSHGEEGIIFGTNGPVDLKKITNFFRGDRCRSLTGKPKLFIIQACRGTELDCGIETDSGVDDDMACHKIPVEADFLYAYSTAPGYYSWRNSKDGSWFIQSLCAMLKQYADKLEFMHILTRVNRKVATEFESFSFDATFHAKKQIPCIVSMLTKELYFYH

Assay [6] deals with T3, caspase-3. The source holds these as a separate data set.

Regarding “substrate 11: FRET fluorogenic substrate, recognition Asp-Ala-Pro-Asp, quencher MR, C-terminal peptoid ({FAM-Ahx}-DAPD[Ahx]K(MethylRed)-{peptoid-NH2}; reading uncertain; also: printed as Asp-Ala-Pro-Asp)”, in the assay with caspase-3 [1], the Km is 0.4 ± 0.1 µM and the “Kcat, Caspase-3” value stood at 0.0217 ± 0.0017 s⁻¹. For the same molecule, in the assay with caspase-3 [1] (listed as 11), the “kcat/KM (catalytic efficiency), Caspase-3” value was determined as 56700 M⁻¹ s⁻¹. Also, in the assay with caspase-7 [2], the “cleavage by caspase-7 (MALDI-TOF MS)” value was “(partially) cleaved by caspase-7”; the “cleavage site with caspase-7” value is “between the Ahx spacer and the Lys(MR)”. For the same molecule, in the assay with caspase-7 [3], the Michaelis constant (Km) amounted to 4.9 ± 2.1 µM; the “kcat, Caspase-7” value turned out to be 0.0267 ± 0.005 s⁻¹; the “kcat/KM, Caspase-7” value came to 5000 M⁻¹ s⁻¹. In the assay with caspase-3 [4], the “cleavage by caspase-3 (MALDI-TOF MS)” value is given as “cleaved by caspase-3 at the X1 position” and the “parent compound after incubation with caspase-3” value (“parent compound after incubation” below) is “no longer detected”.

In the case of “substrate 12: FRET fluorogenic substrate, recognition Asp-Leu-Pro-Asp, quencher MR, C-terminal peptoid ({FAM-Ahx}-DLPD[Ahx]K(MethylRed)-{peptoid-NH2}; reading uncertain; also: printed as Asp-Leu-Pro-Asp)”, in the assay with caspase-3 [1], the Km was found to be 0.2 ± 0.1 µM and the “Kcat, Caspase-3” value worked out at 0.0233 ± 0.0033 s⁻¹. The “kcat/KM (catalytic efficiency), Caspase-3” value with caspase-3 [1] (listed as 12) was found to be 96700 M⁻¹ s⁻¹. Besides, in the assay with caspase-7 [2], the “cleavage by caspase-7 (MALDI-TOF MS)” value is listed as “(partially) cleaved by caspase-7”; the “cleavage site with caspase-7” value was “between the Ahx spacer and the Lys(MR)”. In the assay with caspase-7 [3], the Michaelis-Menten constant (Km) amounted to 1.4 ± 0.3 µM; the “kcat, Caspase-7” value came to 0.015 ± 0.0012 s⁻¹; the “kcat/KM, Caspase-7” value stood at 12000 M⁻¹ s⁻¹. In the assay with caspase-3 [4], the “cleavage by caspase-3 (MALDI-TOF MS)” value is “cleaved by caspase-3 at the X1 position” and the “parent compound after incubation” value was “no longer detected”.

Take “substrate 14: FRET fluorogenic substrate, recognition Asp-Val-Pro-Asp, quencher MR, C-terminal peptoid ({FAM-Ahx}-DVPD[Ahx]K(MethylRed)-{peptoid-NH2}; reading uncertain; also: printed as Asp-Val-Pro-Asp)”: in the assay with caspase-3 [1], the Km worked out at 0.2 ± 0.04 µM and the “Kcat, Caspase-3” value was determined as 0.0283 ± 0.0017 s⁻¹. Moreover, in the assay with caspase-7 [2], the “cleavage by caspase-7 (MALDI-TOF MS)” value was “(partially) cleaved by caspase-7”; the “cleavage site with caspase-7” value is “between the Ahx spacer and the Lys(MR)”. In the assay with caspase-7 [3], the Michaelis constant (Km) turned out to be 3.6 ± 0.9 µM; the “kcat, Caspase-7” value was 0.0233 ± 0.0033 s⁻¹; the “kcat/KM, Caspase-7” value came to 6700 M⁻¹ s⁻¹. Besides, in the assay with caspase-3 [4], the “cleavage by caspase-3 (MALDI-TOF MS)” value was “cleaved by caspase-3 at the X1 position” and the “parent compound after incubation” value is “no longer detected”.

Take {FAM-Ahx}-DLPDK(MethylRed)-{Ahx-peptoid} (reading uncertain; also: printed as FAM-Ahx-Asp-Leu-Pro-Asp-Lys(MR)-Ahx-peptoid) [fluorogenic substrate 27 (FAM-Ahx-Asp-Leu-Pro-Asp-Lys(MR)-Ahx-peptoid)]: in the assay with caspase-3 [5], the KM of cleavage by caspase-3 (fluorogenic Michaelis-Menten kinetics) was found to be 1.1 µM.

With {FAM-Ahx}-DLPD[Ahx]K(MethylRed)-{peptoid-NH2} (reading uncertain; also: printed as FAM-Ahx-Asp-Leu-Pro-Asp-Ahx-Lys(MR)-peptoid) [fluorogenic substrate 12 (FAM-Ahx-Asp-Leu-Pro-Asp-Ahx-Lys(MR)-peptoid)], in the assay with caspase-3 [6], the KM of cleavage by caspase-3 (fluorogenic Michaelis-Menten kinetics, substrate 0.1-8 μM, 15 nM enzyme) is 0.2 µM.

As for {FAM-Ahx}-DAPD[Ahx]K(MethylRed)-{peptoid-NH2} (reading uncertain; also: printed as Asp-Ala-Pro-Asp) [fluorogenic substrate 11 (FAM-Ahx-Asp-Ala-Pro-Asp-Ahx-Lys(MR)-peptoid)], the KM of cleavage by caspase-3 (fluorogenic Michaelis-Menten kinetics, substrate 0.1-8 μM, 15 nM enzyme) with caspase-3 [6] worked out at 0.4 µM.

In the case of {FAM-Ahx}-DVPD[Ahx]K(MethylRed)-{peptoid-NH2} (reading uncertain; also: printed as Asp-Val-Pro-Asp) [fluorogenic substrate 14 (FAM-Ahx-Asp-Val-Pro-Asp-Ahx-Lys(MR)-peptoid)], the KM of cleavage by caspase-3 (fluorogenic Michaelis-Menten kinetics, substrate 0.1-8 μM, 15 nM enzyme) with caspase-3 [6] came out at 0.2 µM.
